This is an account of results in patent publication US20220289837A1 (VIB VZW, published 2022).

The target in experiment [1] is T1, 2PT-NBD1 (human CFTR nucleotide-binding domain 1, residues 387-646, with S492P, A534P, I539T) (human, UniProt P13569 388-646, biotinylated for the ELISA (sites not given)).
T1 construct: N-terminal His6-SUMO tag removed with Ulp1; In the T2a-T4 and T27 crystals the domain was cut by papain or subtilisin
Briefly: ITC, nanobody titrated into 2PT-NBD1 at 20 °C, one-site model. The method, then: (§1) Isothermal titration calorimetry (ITC) was used to characterize the thermodynamic parameters of the binding (FIG. 1e and FIG. 9). […] These KD values are similar to those measured for other in vivo matured camelid heavy-chain antibodies interacting with their ligands^{[20]}. The thermodynamic parameters of the interaction of nanobodies with 2PT-NBD1 were determined based on these ITC measurements (FIG. 1e and FIG. 9).
(§2) Interactions between nanobodies and 2PT-NBD1 was carried out on NanoITC system (TA Instruments) in 0.165 ml cells at 20° C., 300 rpm syringe stirring. Proteins were extensively dialyzed in 20 mM Hepes buffer pH 7.5, 150 mM NaCl, 10% (w/v) glycerol, 10% (w/v) ethylene glycol, 2 mM ATP and 3 mM MgCl₂ for 16 h at 4° C. Heat of dilution from control experiments of each nanobody titrated into buffer was subtracted from the titration into 2PT-NBD1. Data were integrated analyzed with Origin 7.0 software (Origin Lab Corp.).
In general terms: Isothermal titration calorimetry measures the heat released or taken up as one component is titrated into another.

Experiment [2] deals with T1, 2PT-NBD1 (human CFTR nucleotide-binding …). Briefly: isothermal titration calorimetry, nanobody titrated into 2PT-NBD1 at 20 °C, one-site model. The method, then:
as §1, §2

Experiment [3] shares this target. Briefly: ELISA, biotinylated 2PT-NBD1 on avidin-coated plate, nanobody titrated, anti-His detection; column head 'pEC50 (M)'. The method, then:
(a) Nanobody binding to 2PT-NBD1 measured by ELISA. Biotinylated 2PT-NBD1 was immobilized on avidin-coated plates and incubated with increasing concentration of each nanobody. Binding of nanobody was followed by immunodetection of the His-tag (see Methods). Representative curve of 3 independent experiments is shown. Error bars represent the standard deviation (SD) of duplicates. Data were normalized to maximum signal for each nanobody separately. (b) Nanobody binding to F508del-2PT-NBD1 measured by ELISA as described in panel a. (c) Nanobody T4 binding to 2PT-NBD1 and F508del-2PT-NBD1. Data were normalized to maximum signal of T4 binding to 2PT-NBD1. (d) Nanobody T8 binding to 2PT-NBD1 and F508del-2PT-NBD1. Data were normalized to maximum signal of T8 binding to 2PT-NBD1.
For dose-response assays, Nunc MaxiSorp 96-well plates (ThermoScientific), were coated with 5 μg/ml NeutrAvidin Biotin-Binding protein (ThermoScientific) overnight at 4° C. and blocked 2 h at room temperature (RT) with 2% milk in phosphate-buffered saline (PBS). Each new reagent addition was preceded by three washes with 200 μl of NBD1 buffer (20 mM HEPES pH 7.5, 150 mM NaCl, and 10% (w/v) glycerol, 10% (w/v) ethylene glycol, 2 mM ATP, 3 mM MgCl₂). Then, biotinylated purified NBD1 proteins at 5 μg/ml were immobilized 30 min at RT followed by 1 h RT incubation with 100 μl various concentrations (0-20 μg/ml) of purified nanobodies. Signal detection was followed using His-tag specific antibody (Invitrogen, catalogue number: MA1-135, 1:3000 dilution) to detect the nanobodies and secondary antibody anti-mouse coupled to horse radish peroxidase (HRP) (Millipore, catalogue number: AP308P, 1:5000 dilution). 50 μl of 1-Step UltraTMB-ELISA (ThermoScientific) was used as a substrate for the peroxidase and intensity of the reaction was proportional to absorbance measured at 450 nm with SynergyMx (BioTek) after addition of 50 μl H₂SO₄ at 1M.

T1 sequence (P13569 388-646 V470M/S492P/A534P/I539T limits assumed): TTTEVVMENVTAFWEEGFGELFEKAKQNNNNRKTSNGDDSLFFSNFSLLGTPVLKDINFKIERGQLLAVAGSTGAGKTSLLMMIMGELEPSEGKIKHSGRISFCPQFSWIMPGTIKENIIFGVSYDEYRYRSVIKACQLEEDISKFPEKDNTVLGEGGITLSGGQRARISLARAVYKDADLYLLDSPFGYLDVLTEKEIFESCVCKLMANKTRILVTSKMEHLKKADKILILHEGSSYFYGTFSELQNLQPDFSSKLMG

B1: Nanobody T2a (VHH, not shown: small tags and cut ends)
VHH: QVQLQESGGGLVQAGGSLRLSCAASGSIFRIDAMGWYRQAPGKQRELVAHSTSGGSTDYADSVKGRFTISRDNAKNTVYLQMNSLKPEDTAVYYCNADVRTRWYASNNYWGQGTQVTVSS
notes: Llama nanobody; also called Nb T2a; T2a Nb
For B1, in experiment [1], the ΔG was -9.7 kcal/mol and the ΔH was -13.8 kcal/mol. Further, the Kd in experiment [2] stood at 54 nM. Further, the pEC50 in experiment [3] stood at 7.9.

B2: Nanobody T8 (VHH, not shown: small tags and cut ends)
VHH: QVQLQESGGGLVQPGGSLRLSCAASGSTSSINAMGWYRQAPGKQREPVAISSSGGDTRYAEPVKGRFTISRDNAQNKVYLQMNSLKPEDTAVYYCWLNWGRTSVNSWGQGTQVTVSS
notes: Llama nanobody; also called Nb T8; T8 Nb
As to B2, in experiment [1], the ΔG was -9.94 kcal/mol and the ΔH is -15.5 kcal/mol. The affinity in experiment [2], expressed as Kd, was 39 nM. Further, the pEC50 in experiment [3] stood at 7.9.

For orientation: Kd means the free concentration of one partner at which half of the binding sites on the other are occupied at equilibrium, for simple one-to-one binding. The low end stands for tighter binding, the high end for weaker binding. The pEC50 is −log10 of the EC50, conventionally taken in molar units.
